Here are results for 1 molecule from patent US7507790 (UNIVERSITY OF SUSSEX, dated 2009).

For the test, the target named is T1, SAF-p2a.
T1 construct: also called self-assembling peptide; straight
T1 peptide: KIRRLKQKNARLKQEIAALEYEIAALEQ
Put plainly: co-assembly into fibres, seen by TEM (each peptide at 100 µM, 22° C. overnight). On the procedure:
All samples of fibres were prepared with SAF-p1 and SAF-p2a (each at 100 μM concentration) with the designated amounts of FiSh peptides, and incubated at 22° C. overnight following the techniques described in Pandya et al., 2000 (supra).

B1: SAF-p1 (peptide)
peptide: KIAALKQKIASLKQEIDALEYENDALEQ
notes: Synthetic de novo leucine-zipper peptide made by Fmoc solid-phase synthesis; also called self-assembling peptide; straight
Regarding B1, the binding result is “binds”.
